Changes are numbered by the printed parent chain.
B1: h20F3ec (antibody, human IgG1, kappa, V domains shown)
VH: QIQLVQSGSELKKPGASVKVSCKASGYTFTNYGMNWVRQAPGQDLKWMGWINTYSGEPRYADDFKGRFVFSLDKSVNTAYLQISSLKAEDTAVYYCARDYGRWYFDVWGQGTTVTVSS
VL: QIVLSQSPATLSLSPGERATMSCRASSSVSHMHWYQQKPGQAPRPWIYATSNLASGVPARFSGSGSGTDYTLTISSLEPEDFAVYYCQQWSSTPRTFGGGTKVEIKR
B2: humanized 20F3 HDLD antibody (antibody, V domains shown)
VH: B1 VH
VL: B1 VL
notes: also called h20F3_HDLD; h20F3_HDLD-AF647
B3: c20F3-1910(2) ADC (other)
VH: QIQLVQSGPELKKPGETVKISCKASGYTFTNYGMNWVKQAPGKDLKWMGWINTYSGEPRYADDFKGRFAFSLEKSANTAYLQINNLKNEDMATYFCARDYGRWYFDVWGTGTTVTVSS
VL: QIVLSQSPAILSASPGEKVTMTCRASSSVSHMHWYQQKPGSSPKPWIYATSNLASGVPARFSGSGSGTSYSLTISRVEAEDAATYYCQQWSSTPRTFGGGTKLEIKR
modifications: PBD dimer drug-linker 1910, load 2 by its name; attachment site not stated for the chimeric antibody
B4: c20F3-vcMMAE(4) ADC (other)
VH: B3 VH
VL: B3 VL
modifications: MMAE via a cathepsin-cleavable valine-citrulline linker, load 4 by its name; attachment sites not stated
B5: humanized 20F3 HCLB (antibody, V domains shown)
VH: B1 VH with K46E
VL: B1 VL with Q1E, S5T, M21L, V57I
notes: Humanized heavy chain HC paired with humanized light chain LB
B6: humanized 20F3 HALC (antibody, V domains shown)
VH: B1 VH with I2V, D44G, K46E, K74T, N77S
VL: B1 VL with M21L, V57I
notes: Humanized heavy chain HA paired with humanized light chain LC
B7: humanized 20F3 HELB (antibody, V domains shown)
VH: B1 VH with R38K, V69A, Y95F
VL: B1 VL with Q1E, S5T, M21L, V57I
notes: Humanized heavy chain HE paired with humanized light chain LB
B8: humanized 20F3 HDLB (antibody, V domains shown)
VH: B1 VH
VL: B1 VL with Q1E, S5T, M21L, V57I
notes: Humanized heavy chain HD paired with humanized light chain LB
B9: humanized 20F3 HBLC (antibody, V domains shown)
VH: B1 VH with D44G, K46E, N77S
VL: B1 VL with M21L, V57I
notes: Humanized heavy chain HB paired with humanized light chain LC
B10: humanized 20F3 HBLA (antibody, V domains shown)
VH: B1 VH with D44G, K46E, N77S
VL: B1 VL with Q1E, S5T, M21L, P45L, W46L, V57I, Y70F
notes: Humanized heavy chain HB paired with humanized light chain LA
B11: humanized 20F3 HELD (antibody, V domains shown)
VH: B1 VH with R38K, V69A, Y95F
VL: B1 VL
notes: Humanized heavy chain HE paired with humanized light chain LD
B12: humanized 20F3 HELA (antibody, V domains shown)
VH: B1 VH with R38K, V69A, Y95F
VL: B1 VL with Q1E, S5T, M21L, P45L, W46L, V57I, Y70F
notes: Humanized heavy chain HE paired with humanized light chain LA
B13: humanized 20F3 HCLD (antibody, V domains shown)
VH: B1 VH with K46E
VL: B1 VL
notes: Humanized heavy chain HC paired with humanized light chain LD
B14: humanized 20F3 HCLA (antibody, V domains shown)
VH: B1 VH with K46E
VL: B1 VL with Q1E, S5T, M21L, P45L, W46L, V57I, Y70F
notes: Humanized heavy chain HC paired with humanized light chain LA
B15: humanized 20F3 HALB (antibody, V domains shown)
VH: B1 VH with I2V, D44G, K46E, K74T, N77S
VL: B1 VL with Q1E, S5T, M21L, V57I
notes: Humanized heavy chain HA paired with humanized light chain LB
B16: humanized 20F3 HALA (antibody, V domains shown)
VH: B1 VH with I2V, D44G, K46E, K74T, N77S
VL: B1 VL with Q1E, S5T, M21L, P45L, W46L, V57I, Y70F
notes: Humanized heavy chain HA paired with humanized light chain LA
B17: humanized 20F3 HDLA (antibody, V domains shown)
VH: B1 VH
VL: B1 VL with Q1E, S5T, M21L, P45L, W46L, V57I, Y70F
notes: Humanized heavy chain HD paired with humanized light chain LA
B18: humanized 20F3 HBLB (antibody, V domains shown)
VH: B1 VH with D44G, K46E, N77S
VL: B1 VL with Q1E, S5T, M21L, V57I
notes: Humanized heavy chain HB paired with humanized light chain LB
B19: humanized 20F3 HALD (antibody, V domains shown)
VH: B1 VH with I2V, D44G, K46E, K74T, N77S
VL: B1 VL
notes: Humanized heavy chain HA paired with humanized light chain LD
B20: humanized 20F3 HCLC (antibody, V domains shown)
VH: B1 VH with K46E
VL: B1 VL with M21L, V57I
notes: Humanized heavy chain HC paired with humanized light chain LC
B21: humanized 20F3 HELC (antibody, V domains shown)
VH: B1 VH with R38K, V69A, Y95F
VL: B1 VL with M21L, V57I
notes: Humanized heavy chain HE paired with humanized light chain LC
B22: humanized 20F3 HDLC (antibody, V domains shown)
VH: B1 VH
VL: B1 VL with M21L, V57I
notes: Humanized heavy chain HD paired with humanized light chain LC
B23: humanized 20F3 HBLD (antibody, V domains shown)
VH: B1 VH with D44G, K46E, N77S
VL: B1 VL
notes: Humanized heavy chain HB paired with humanized light chain LD
B24: murine 20F3 antibody (antibody, mouse IgG1, V domains shown)
VH: B3 VH
VL: B3 VL
notes: also called mouse 20F3
B25: chimeric 20F3 (antibody, V domains shown)
VH: B3 VH
VL: B3 VL
notes: It was detected with goat anti-human IgG, so the constant regions are human, but they are not specified

target: T1, human NTB-A (human, UniProt Q96DU3 22-332); assay: cell-based or functional assay
T1 sequence: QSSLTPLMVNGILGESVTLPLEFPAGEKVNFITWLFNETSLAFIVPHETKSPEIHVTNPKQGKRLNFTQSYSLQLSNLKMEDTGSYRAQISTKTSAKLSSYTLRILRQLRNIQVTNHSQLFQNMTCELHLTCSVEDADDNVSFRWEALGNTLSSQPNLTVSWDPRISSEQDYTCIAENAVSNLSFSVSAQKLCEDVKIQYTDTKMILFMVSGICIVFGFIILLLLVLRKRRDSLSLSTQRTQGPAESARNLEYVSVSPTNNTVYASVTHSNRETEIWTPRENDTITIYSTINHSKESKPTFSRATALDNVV

Row | Binder | Maximum % Phagocytosis (ADCP), Raji cell line | Maximum % Phagocytosis (ADCP), WIL2-S cell line | Maximum % Phagocytosis (ADCP), normal human T cells
1 | B1 | 44% | 45% | 33%
2 | B2 | 48% | 45% | 42%

target: T1, human NTB-A; assay: cell-based or functional assay; remark: another data set of the same source

Row | Binder | IC50, 96 hour cytotoxicity (Cell-Titer Glo), resting human B cells, donor 1 | IC50, 96 hour cytotoxicity (Cell-Titer Glo), resting human B cells, donor 2 | IC50, 96 hour cytotoxicity (Cell-Titer Glo), resting human B cells, donor 3 | IC50, 96 hour cytotoxicity (Cell-Titer Glo), resting human T cells, donor 4 | IC50, 96 hour cytotoxicity (Cell-Titer Glo), resting human T cells, donor 5 | IC50, 96 hour cytotoxicity (Cell-Titer Glo), resting human T cells, donor 6
3 | B3 | 1.47 µg/mL | 1.27 µg/mL | 3.42 µg/mL | > 10 µg/mL | > 10 µg/mL | > 10 µg/mL
4 | B4 | > 10 µg/mL | > 10 µg/mL | > 10 µg/mL | – | – | –

target: T1, human NTB-A; assay: antigen binding competition assay on Ramos cells
Procedure: (§1) Antigen positive Ramos cells were plated at 1×10⁵ cells per well in a 96 well V-bottom plate (Thermo Scientific, Rochester, N.Y.). Fifty-fold serial dilutions of antibodies were prepared in FACs buffer (PBS+2% fetal bovine serum) and were added to the cells in duplicate. The antibody solutions were incubated with cells for 1 hour on ice, protected from light. The cells were washed twice with FACs buffer and analyzed on the LSRII flow cytometer (BD BioSciences, San Jose, Calif.). EC50 values were determined with GraphPad Prism software (La Jolla, Calif.).

Row | Binder | EC50
5 | B2 | ~12 nM

target: T1, human NTB-A; assay: competition flow cytometry on Ramos cells; competitor 5 nM mouse 20F3-Alexa Fluor 647
Procedure: as §1

Row | Binder | EC50
6 | B5 | 5 nM
7 | B6 | 27 nM
8 | B2 | 3 nM
9 | B7 | 4 nM
10 | B8 | 3 nM
11 | B9 | 12 nM
12 | B10 | 71 nM
13 | B11 | 2 nM
14 | B12 | 31 nM
15 | B13 | 5 nM
16 | B14 | 25 nM
17 | B15 | 12 nM
18 | B16 | 147 nM
19 | B17 | 15 nM
20 | B18 | 6 nM
21 | B19 | 12 nM
22 | B20 | 8 nM
23 | B21 | 10 nM
24 | B22 | 6 nM
25 | B23 | 4 nM
26 | B24 | 2 nM

target: T1, human NTB-A; assay: saturation binding of Alexa Fluor 647-labeled antibody on Ramos cells, flow cytometry
Procedure: (§2) Antigen positive Ramos cells were plated at 1×10⁵ cells per well in a 96 well V-bottom plate (Thermo Scientific, Rochester, N.Y.). Three-fold serial dilutions of 2× concentrated antibodies were prepared in FACs buffer (PBS+2% fetal bovine serum) and were added to the cells in duplicate. The antibody solutions were incubated with cells for 1 hour on ice, protected from light. The cells were washed twice with FACs buffer and analyzed on the LSRII flow cytometer (BD BioSciences, San Jose, Calif.). KD values were determined with GraphPad Prism software (La Jolla, Calif.). Anti-human NTB-A antibodies h20F3_HDLD and chimeric 20F3 were tested for binding to 293-F17 cells overexpressing cynomolgus-NTB-A. 293-F17/cynomolgus-NTB-A cells were plated at 5×10⁵ cells/well in FACS buffer (PBS+2% fetal bovine serum+0.02% azide) and incubated with 20 μg/mL antibody for 30 minutes on ice. The cells were washed twice and stained with 30 μg/mL goat anti-human IgG-PE (Jackson ImmunoResearch, West Grove, Pa.) for 30 minutes, on ice and protected from light. Cells were again washed twice with FACs buffer. Stained cells were analyzed on the FACs Calibur flow cytometer (BD BioSciences, San Jose, Calif.).

Row | Binder | Kd
27 | B25 | 1.68 nM

target: T1, human NTB-A; assay: saturation binding of Alexa Fluor 647-labeled antibody (h20F3_HDLD-AF647) on Ramos cells, flow cytometry
Procedure: as §2

Row | Binder | Kd
28 | B2 | 2.2 nM

From patent US20180169257A1 (Seagen, published 2018)
